B1: ANPXY-L4-Fc2AB (protein)
chain: SLRRSSCFGGRMDRIGAQSGLGCNSFRYGGSGGSGGSGGCPPCPAPPVAGPSVFLFPPKPKDTLMISRTPEVTCVVVDVSHEDPEVQFNWYVDGVEVHNAKTKPREEQFNSTFRVVSVLTVVHQDWLNGKEYKCKVSNKGLPAPIEKTISKTKGQPREPQVYTLPPSREEMTKNQVSLTCLVKGFYPSDIAVEWESNGQPENNYKTTPPMLDSDGSFFLYSKLTVDKSRWQQGNVFSCSVMHEALHNHYTQKSLSLSPGK
modifications: Synthesized ANPxy-L4-Fc2ab (protein)
B2: ANPXY-L6-Fc2AB (protein)
chain: SLRRSSCFGGRMDRIGAQSGLGCNSFRYGGSGGSGGSGGSGGSGGSGGCPPCPAPPVAGPSVFLFPPKPKDTLMISRTPEVTCVVVDVSHEDPEVQFNWYVDGVEVHNAKTKPREEQFNSTFRVVSVLTVVHQDWLNGKEYKCKVSNKGLPAPIEKTISKTKGQPREPQVYTLPPSREEMTKNQVSLTCLVKGFYPSDIAVEWESNGQPENNYKTTPPMLDSDGSFFLYSKLTVDKSRWQQGNVFSCSVMHEALHNHYTQKSLSLSPGK
modifications: Synthesized ANPxy-L6-Fc2ab

Experiment: Single-dose rat PK study of recombinant ANP-Fc fusions, i.v. or s.c.
Type: in vivo
Conditions: 1 mg/kg, Sprague Dawley rats
Method: The pharamacokinetics of the recombinant ANP-Fc fusion candidates were assessed by running a single-dose rat PK study. Single bolus injections of ANP-Fc fusions at 1 mg/kg dose were given to Sprague Dawley rats via i.v. or s.c. injection. Vehicle control PBS injections were given to a control group of animals. […] Animals were sampled for 1 week with a contingency group going up to 3 weeks. After sampling the animals were quarantined and the plasma samples with EDTA and Aprotinin are assayed in a sandwich ELISA where the ANP is captured with a monoclonal antibody and detected with an anti-human Fc antibody. The ELISA has a sensitivity of 1 ng/mL and may be used to detect ANP-Fc fusion proteins in rat plasma. This rat PK data permits the comparison of the in vivo half-life of the ANP-Fc fusion proteins to that of the native ligand, hANP28.

Molecule | half-life (T½) (intravenous bolus) [h] | mean resonance time (MRT) (intravenous bolus) [h] | volume of distribution (Vss) (intravenous bolus) [L/kg] | area under the curve (AUC) (subcutaneous) [ng·h/mL] | half-life (T½) (subcutaneous) [h] | maximum serum concentration obtained (Cmax) (subcutaneous) [ng/mL] | percent bioavailability (% F) (subcutaneous) [%]
B1 | 16.8 | 3.91 | 0.61 | 2671 | 23.1 | 53.5 | 20.6
B2 | 11.7 | 3.08 | 0.76 | 2202 | 20.6 | 44 | 26.3
